Drawing on the Human Domainome abundance scans (Beltran et al. 2025), this text covers abundance fitness for 48 variants.

B1: Intersectin-2, residues 1129 to 1183; numbered along this chain, Q9NZM3 (parent)
chain: VCQVIAMYDYAANNEDELSFSKGQLINVMNKDDPDWWQGEINGVTGLFPSNYVKM

± gives the uncertainty stated by the source.

The variants in the data set derive from B1. Briefly: abundance fitness (aPCA) (normalised: wild type 0, dead -1); higher = more abundant; growth selection in yeast, the domain comes from the species named. Conditions: Homo sapiens.
In the case of VCQVIAMYDYAANNEDELSFSKGQLINVMNKDDPDWWQIEINGVTGLFPSNYVKM [G39I], the abundance fitness was -0.942 ± 0.14.

For the variant VCQVIAMYDYAANNEDELSFSKGQLINVMNKDDPDWWQKEINGVTGLFPSNYVKM [G39K], the abundance fitness was -0.999 ± 0.091.

In the case of VCQVIAMYDYAANNEDELSFSKGQLINVMNKDDPDWWQREINGVTGLFPSNYVKM [G39R], the abundance fitness is -1.06 ± 0.073.

As to VCQVIAMYDYAANNEDELSFSKGQLINVMNKDDPDWWQDEINGVTGLFPSNYVKM [G39D], the abundance fitness was -0.726 ± 0.099.

On to VCQVIAMYDYAANNEDELSFSKGQLINVMNKDDPDWWQQEINGVTGLFPSNYVKM [G39Q], for which the abundance fitness is -0.992 ± 0.21.

VCQVIAMYDYAANNEDELSFSKGQLINVMNKDDPDWWQGEENGVTGLFPSNYVKM [I41E]: the abundance fitness was -0.478 ± 0.07.

For the variant VCQVIAMYDYAANNEDELSFSKGQLINVMNKDDPDWWQGEDNGVTGLFPSNYVKM [I41D], the abundance fitness is -0.624 ± 0.065.

For the variant VCQVIAMYDYAANNEDELSFSKGQLINVMNKDDPDWWQGEANGVTGLFPSNYVKM [I41A], the abundance fitness amounted to 0.016 ± 0.028.

As for VCQVIAMYDYAANNEDELSFSKGQLINVMNKDDPDWWQGECNGVTGLFPSNYVKM [I41C], the abundance fitness is -0.148 ± 0.052.

Turning to VCQVIAMYDYAANNEDELSFSKGQLINVMNKDDPDWFQGEINGVTGLFPSNYVKM [W37F], the abundance fitness is -0.156 ± 0.037.

VCQVIAMYDYAANNEDELSFSKGQLINVMNKDDPDWCQGEINGVTGLFPSNYVKM [W37C]: the abundance fitness was -0.516 ± 0.041.

For the variant VCQVIAMYDYAANNEDELSFSKGQLINVMNKDDPDWAQGEINGVTGLFPSNYVKM [W37A], the abundance fitness was -0.857 ± 0.099.

Take VCQVIAMYDYAANNEDELSFSKGQLINVMNKDDPDWNQGEINGVTGLFPSNYVKM [W37N]: the abundance fitness was -0.771 ± 0.12.

For the variant VCQVIAMYDYAANNEDELSFSKGQLINVMNKDDPDWKQGEINGVTGLFPSNYVKM [W37K], the abundance fitness was -1.03 ± 0.095.

On to VCQVIAMYDYAANNEDELSFSKGQLINVMNKDDPDWEQGEINGVTGLFPSNYVKM [W37E], for which the abundance fitness is -0.928 ± 0.071.

On to VCQVIAMYDYAANNEDELSFSKGQLINVMNKDDPDWTQGEINGVTGLFPSNYVKM [W37T], for which the abundance fitness is -0.854 ± 0.08.

Turning to VCQVIAMYDYAANNEDELSFSKGQLINVMNKDDPDWPQGEINGVTGLFPSNYVKM [W37P], the abundance fitness is -0.582 ± 0.045.

Take VCQVIAMYDYAANNEDELSFSKGQLINVMNKDDPDWIQGEINGVTGLFPSNYVKM [W37I]: the abundance fitness was -0.615 ± 0.095.

Take VCQVIAMYDYAANNEDELSFSKGQLINVMNKDDPDWGQGEINGVTGLFPSNYVKM [W37G]: the abundance fitness is -0.826 ± 0.043.

For the variant VCQVIAMYDYAANNEDELSFSKGQLINVMNKDDPDWMQGEINGVTGLFPSNYVKM [W37M], the abundance fitness was -0.283 ± 0.061.

For the variant VCQVIAMYDYAANNEDELSFSKGQLINVMNKDDPDWSQGEINGVTGLFPSNYVKM [W37S], the abundance fitness was -0.805 ± 0.064.

For the variant VCQVIAMYDYAANNEDELSFSKGQLINVMNKDDPDWDQGEINGVTGLFPSNYVKM [W37D], the abundance fitness is -0.865 ± 0.18.

As for VCQVIAMYDYAANNEDELSFSKGQLINVMNKDDPDWQQGEINGVTGLFPSNYVKM [W37Q], the abundance fitness was -0.699 ± 0.1.

With VCQVIAMYDYAANNEDELSFSKGQLINVMNKDDPDWVQGEINGVTGLFPSNYVKM [W37V], the abundance fitness is -0.78 ± 0.061.

Regarding VCQVIAMYDYAANNEDELSFSKGQLINVMNKDDPDWLQGEINGVTGLFPSNYVKM [W37L], the abundance fitness was -0.384 ± 0.03.

On to VCQVIAMYDYAANNEDELSFSKGQLINVMNKDDPDWRQGEINGVTGLFPSNYVKM [W37R], for which the abundance fitness was -0.787 ± 0.058.

Turning to VCQVIAMYDYAANNEDELSFSKGQLINVMNKDDPSWWQGEINGVTGLFPSNYVKM [D35S], the abundance fitness was -0.035 ± 0.031.

For the variant VCQVIAMYDYAANNEDELSFSKGQLINVMNKDDPYWWQGEINGVTGLFPSNYVKM [D35Y], the abundance fitness was -0.075 ± 0.042.

On to VCQVIAMYDYAANNEDELSFSKGQLINVMNKDDPRWWQGEINGVTGLFPSNYVKM [D35R], for which the abundance fitness was -0.021 ± 0.031.

In the case of VCQVIAMYDYAANNEDELSFSKGQLINVMNKDDPQWWQGEINGVTGLFPSNYVKM [D35Q], the abundance fitness was -0.099 ± 0.055.

Regarding VCQVIAMYDYAANNEDELSFSKGQLINVMNKDDPVWWQGEINGVTGLFPSNYVKM [D35V], the abundance fitness was -0.04 ± 0.033.

Consider VCQVIAMYDYAANNEDELSFSKGQLINVMNKDDPWWWQGEINGVTGLFPSNYVKM [D35W], for which the abundance fitness is -0.145 ± 0.045.

With VCQVIAMYDYAANNEDELSFSKGQLINVMNKDDPPWWQGEINGVTGLFPSNYVKM [D35P], the abundance fitness is -0.39 ± 0.038.

As to VCQVIAMYDYAANNEDELSFSKGQLINVMNKDDPDWWQGAINGVTGLFPSNYVKM [E40A], the abundance fitness is -0.055 ± 0.031.

VCQVIAMYDYAANNEDELSFSKGQLINVMNKDDPDWWQGWINGVTGLFPSNYVKM [E40W]: the abundance fitness is -0.15 ± 0.05.

On to VCQVIAMYDYAANNEDELSFSKGQLINVMNKDDPDWWQGGINGVTGLFPSNYVKM [E40G], for which the abundance fitness is -0.157 ± 0.036.

Consider VCQVIAMYDYAANNEDELSFSKGQLINVMNKDDPDWWQGNINGVTGLFPSNYVKM [E40N], for which the abundance fitness was -0.143 ± 0.063.

For the variant VCQVIAMYDYAANNEDELSFSKGQLINVMNKDDPDWWQGCINGVTGLFPSNYVKM [E40C], the abundance fitness is -0.037 ± 0.044.

Turning to VCQVIAMYDYAANNEDELSFSKGQLINVMNKDDPDWWQGFINGVTGLFPSNYVKM [E40F], the abundance fitness was -0.142 ± 0.056.

In the case of VCQVIAMYDYAANNEDELSFSKGQLINVMNKDDPDWWQGQINGVTGLFPSNYVKM [E40Q], the abundance fitness is -0.114 ± 0.049.

VCQVIAMYDYAANNEDELSFSKGQLINVMNKDDPDWWQGRINGVTGLFPSNYVKM [E40R]: the abundance fitness is -0.059 ± 0.04.

On to VCQVIAMYDYAANNEDELSFSKGQLINVMNKDDPDWWQGSINGVTGLFPSNYVKM [E40S], for which the abundance fitness stood at 0.003 ± 0.036.

In the case of VCQVIAMYDYAANNEDELSFSKGQLINVMNKDDPDWWQGPINGVTGLFPSNYVKM [E40P], the abundance fitness was -0.963 ± 0.14.

Consider VCQVIAMYDYAANNEDELSFSKGQLINVMNKDDPDWWQGMINGVTGLFPSNYVKM [E40M], for which the abundance fitness is -0.08 ± 0.058.

VCQVIAMYDYAANNEDELSFSKGQLINVMNKDDPDWWQGYINGVTGLFPSNYVKM [E40Y]: the abundance fitness was -0.176 ± 0.06.

Consider VCQVIAMYDYAANNEDELSFSKGQLINVMNKDDPDWWQGKINGVTGLFPSNYVKM [E40K], for which the abundance fitness is -0.037 ± 0.06.

Take VCQVIAMYDYAANNEDELSFSKGQLINVMNKDDPDWWQGDINGVTGLFPSNYVKM [E40D]: the abundance fitness was -0.045 ± 0.046.

VCQVIAMYDYAANNEDELSFSKGQLINVMNKDDPDWWQGHINGVTGLFPSNYVKM [E40H]: the abundance fitness was -0.08 ± 0.052.
